Results taken from PMC8805217, “Crystal structure of a hypothetical protein from Giardia lamblia” (Acta Crystallographica. Section F, Structural Biology …, 2022).

Biological target: the molecule itself
Test: crystal structure; X-ray, molecular replacement, 1.35 Å; sitting-drop vapor diffusion at 290 K, protein in 20 mM HEPES pH 7.0, 300 mM NaCl, 5% glycerol, 1 mM TCEP; reservoir 100 mM Tris pH 5.5, 25% PEG 3350, 200 mM ammonium acetate

B1: hypothetical protein from Giardia lamblia (GilaA.00312.a) (natural protein)
chain: GPGSMIYGILSKNLGMPTPTFLVCPDVVKFENVGQIAVVNGMVYLGGSVGIDKSGTLHKGLEEQTRQTFDNIRKCLEYANSGLDYIVSLNIFLSTSLSDSEEARFNELYREVFCVPATRPCRCCVRAQLQEGLLVEVVNVVAAQK
notes: hypothetical protein of Giardia lamblia GL50803_14299, 141 amino acids, amino acids 1-141 of UniProt A8BD71; Homotrimer in the crystal structure (PDB 3i3f); also called hypothetical G. lamblia protein; GL50803_14299; source: E. coli BL21(DE3)R3 Rosetta, purified (IMAC, 3C cleavage of the His tag, reverse IMAC, SEC); not shown: 6xHis, N-terminal, cleaved
stoichiometry N: 3
